According to patent publication US20200239541A1 (XYPHOS BIOSCIENCES, published 2020):
Positions count from the first letter of the chain named.

Assays:
Fc-NKG2D.Y152A [1] = molecular target: T1, Fc-NKG2D.Y152A (human); assay: ELISA of rituximab-MicAbodies
T1 construct: also called eNKG2D A|Y; Fc-NKG2D.YA

Fc-NKG2D.wt [2] = molecular target: T2, Fc-NKG2D.wt (human); assay: ELISA, Fc-NKG2D coated, MicAbody titrated; quantitative ELISA of Table 12, fitted EC50 on Fc-NKG2D.wt (4414-fold weaker than on AF)
T2 construct: also called NKG2D.wt Y|Y; natural Fc-NKG2D

Fc-NKG2D.wt [3] = molecular target: T2, Fc-NKG2D.wt; assay: ELISA, Fc-NKG2D coated, MicAbody titrated; quantitative ELISA of Table 12, fitted EC50 on Fc-NKG2D.wt (20092-fold weaker than on AF)
Fc-NKG2D.wt [4] = molecular target: T2, Fc-NKG2D.wt; assay: ELISA, Fc-NKG2D coated, MicAbody titrated; quantitative ELISA of Table 12, fitted EC50 on Fc-NKG2D.wt (10802-fold weaker than on AF)
Fc-NKG2D.wt [5] = molecular target: T2, Fc-NKG2D.wt; assay: ELISA (called Kd in the text)
Procedure: (§1) The binding affinities of α1-α2 variants to the extracellular domains of natural (wild-type) NKG2D and non-natural eNKG2D proteins were analyzed using a plate-based ELISA method. Each of the SEC fractionated natural Fc-NKG2D and non-natural Fc-eNKG2D fusions were coated overnight at 4° C. onto separate wells of Nunc Maxisorp 96 well plates (Thermo Fisher Scientific, Waltham, Mass.) using a coating concentration of 1 μg/mL in phosphate-buffered saline (PBS). The plates were washed three times in PBS/0.05% Tween-20 (PBS-T) at 20-22° C., and blocked with 0.5% bovine serum albumin in PBS (PBS-B) for 2 hours at 20-22° C. MicAbodies were titrated against the plate-bound natural or non-natural Fc-NKG2D fusions for 60 minutes at 20-22° C. in PBS/0.5% bovine serum albumin (BSA)/0.05% Tween-20 (PBS-BT), washed 3 times with PBS-T at 20-22° C., and the bound bispecific proteins detected using an HRP-conjugated anti-human kappa in PBS-BT (Abcam, Cambridge Mass.) and developed with 1-Step™ Ultra TMB ELISA Substrate Solution (Thermo Fisher Scientific, Waltham, Mass.).

Fc-eNKG2D4 (Y152V) = molecular target: T3, Fc-eNKG2D4 (Y152V) (human); assay: ELISA, Fc-NKG2D coated, MicAbody titrated from 300 nM
T3 construct: also called eNKG2D4 V|Y
Procedure: as §1

Fc-eNKG2D3 (Y152T) = molecular target: T4, Fc-eNKG2D3 (Y152T) (human); assay: as above
T4 construct: also called eNKG2D3 T|Y
Procedure: as §1

Fc-eNKG2D14 (Y152L) = molecular target: T5, Fc-eNKG2D14 (Y152L) (human); assay: as above
T5 construct: also called eNKG2D14 L|Y
Procedure: as §1

Fc-eNKG2D2 (Y152S) = molecular target: T6, Fc-eNKG2D2 (Y152S) (human); assay: as above
T6 construct: also called eNKG2D2 S|Y; not shown: human IgG1 Fc (without Fab domains)
Procedure: as §1

Fc-NKG2D.wt [6] = molecular target: T2, Fc-NKG2D.wt; assay: as above
Procedure: as §1

Fc-eNKG2D9 (Y152V/Y199F) = molecular target: T7, Fc-eNKG2D9 (Y152V/Y199F) (human); assay: ELISA, Fc-eNKG2D coated, MicAbody titrated from 300 nM
T7 construct: also called eNKG2D9 V|F
Procedure: as §1

Fc-eNKG2D7 (Y152S/Y199F) = molecular target: T8, Fc-eNKG2D7 (Y152S/Y199F) (human); assay: as above
T8 construct: also called eNKG2D7 S|F
Procedure: as §1

Fc-eNKG2D5 (Y152A/Y199F) [7] = molecular target: T9, Fc-eNKG2D5 (Y152A/Y199F) (human); assay: as above
T9 construct: also called eNKG2D5 A|F; Fc-NKG2D.AF
Procedure: as §1

Fc-eNKG2D6 (Y152L/Y199F) = molecular target: T10, Fc-eNKG2D6 (Y152L/Y199F) (human); assay: as above
T10 construct: also called eNKG2D6 L|F
Procedure: as §1

Fc-eNKG2D8 (Y152T/Y199F) = molecular target: T11, Fc-eNKG2D8 (Y152T/Y199F) (human); assay: as above
T11 construct: also called eNKG2D8 T|F
Procedure: as §1

[8] = molecular target: T12, Fc-eNKG2D12 (Y152D/Y199D) (human); assay: as above
T12 construct: also called eNKG2D12 D|D
Procedure: as §1

[9] = molecular target: T13, Fc-eNKG2D13 (Y152E/Y199E) (human); assay: as above
T13 construct: also called eNKG2D13 E|E
Procedure: as §1

Fc-NKG2D.Y152A [10] = molecular target: T1, Fc-NKG2D.Y152A; assay: ELISA and Octet, bispecific antibody fused format
Fc-eNKG2D5 (Y152A/Y199F) [11] = molecular target: T9, Fc-eNKG2D5 (Y152A/Y199F); assay: ELISA of rituximab-MicAbodies
Fc-NKG2D.wt [12] = molecular target: T2, Fc-NKG2D.wt; assay: ELISA of rituximab-MicAbodies
[13] = molecular target: T14, His-avitag natural NKG2D ectodomain, biotinylated (human); assay: BLI (Octet), biotinylated natural NKG2D ectodomain coated, 100 nM fusion
T14 construct: also called natural form of the ectodomain of NKG2D
T14 chain: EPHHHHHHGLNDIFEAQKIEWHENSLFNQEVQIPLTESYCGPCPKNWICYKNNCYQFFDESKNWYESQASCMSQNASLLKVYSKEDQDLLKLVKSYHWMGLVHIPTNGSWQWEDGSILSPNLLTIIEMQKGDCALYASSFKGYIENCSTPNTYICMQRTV
Procedure: In order to characterize and compare the kinetic binding parameters of the natural and 8 variant α1-α2 domains to natural NKG2D, we measured their binding to surface coated biotinylated natural NKG2D ectodomain using biolayer interferometry (Octet) at 100 nM of each of the α1-α2-α3-Fv fusion proteins.

[14] = molecular target: T15, WT α1-α2 domain (soluble wild-type MICA, titrated) (UniProt Q29983 24-204); assay: BLI (Octet), biotinylated human NKG2D coated, 100 nM analyte
T15 construct: domain: α1-α2; also called WT MICA; WT NKG2DL
T15 sequence (looked up): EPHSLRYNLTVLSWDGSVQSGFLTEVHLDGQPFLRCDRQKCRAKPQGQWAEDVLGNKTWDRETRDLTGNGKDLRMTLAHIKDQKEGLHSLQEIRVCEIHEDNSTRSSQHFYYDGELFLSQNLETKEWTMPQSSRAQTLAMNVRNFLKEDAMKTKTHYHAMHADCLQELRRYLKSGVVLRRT

[15] = molecular target: T15, WT α1-α2 domain (soluble wild-type …); assay: BLI (Octet), Kd = kOFF/kON

T9 sequence (chain, as listed by the source Y152A Y199F Y152A Y199F limits assumed): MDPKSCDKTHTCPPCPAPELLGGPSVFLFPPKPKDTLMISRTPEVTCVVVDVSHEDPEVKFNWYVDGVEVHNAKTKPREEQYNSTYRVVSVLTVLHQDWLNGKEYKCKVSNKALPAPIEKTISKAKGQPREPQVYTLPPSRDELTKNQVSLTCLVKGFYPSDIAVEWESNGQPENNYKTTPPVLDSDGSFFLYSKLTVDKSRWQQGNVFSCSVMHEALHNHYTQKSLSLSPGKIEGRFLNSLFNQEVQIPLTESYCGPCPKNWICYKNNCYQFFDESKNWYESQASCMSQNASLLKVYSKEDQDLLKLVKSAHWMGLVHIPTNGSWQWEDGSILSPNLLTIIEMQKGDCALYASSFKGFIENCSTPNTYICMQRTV
T13 sequence (chain, as listed by the source Y152E Y199E Y152E Y199E limits assumed): as the sequence (chain, as listed by the source Y152A Y199F Y152A Y199F limits assumed) above, with A312E, F359E counted along it
T12 sequence (chain, as listed by the source Y152D Y199D Y152D Y199D limits assumed): as the sequence (chain, as listed by the source Y152A Y199F Y152A Y199F limits assumed) above, with A312D, F359D counted along it
T7 sequence (chain, as listed by the source Y152V Y199F Y152V Y199F limits assumed): as the sequence (chain, as listed by the source Y152A Y199F Y152A Y199F limits assumed) above, with A312V counted along it
T10 sequence (chain, as listed by the source Y152L Y199F Y152L Y199F limits assumed): as the sequence (chain, as listed by the source Y152A Y199F Y152A Y199F limits assumed) above, with A312L counted along it
T8 sequence (chain, as listed by the source Y152S Y199F Y152S Y199F limits assumed): as the sequence (chain, as listed by the source Y152A Y199F Y152A Y199F limits assumed) above, with A312S counted along it
T11 sequence (chain, as listed by the source Y152T Y199F Y152T Y199F limits assumed): as the sequence (chain, as listed by the source Y152A Y199F Y152A Y199F limits assumed) above, with A312T counted along it

B1: rituximab-ULBP2.R MicAbody (bispecific antibody, human IgG1, kappa)
heavy: not shown
light: QIVLSQSPAILSASPGEKVTMTCRASSSVSYIHWFQQKPGSSPKPWIYATSNLASGVPVRFSGSGSGTSYSLTISRVEAEDAATYYCQQWTSNPPTFGGGTKLEIKTVAAPSVFIFPPSDEQLKSGTASVVCLLNNFYPREAKVQWKVDNALQSGNSQESVTEQDSKDSTYSLSSTLTLSKADYEKHKVYACEVTHQGLSSPVTKSFNRGECAPTSSSGGGGSEPHSLSYDITVIPKFRPGPRWCAVQGQVDEKTFLHYDCGNKTVTPVSPLGKKLNVTTAWKAQNPVLREVVDILTEQLWDIQLENYTPKEPLTLQARMSCEQKAEGHSSGSWQFSFDGQIFLLFDSEKRMWTTVHPGARKMKEKWENDKVVATLLWGWSMGDCIGWLEDFLMGMDSTLEPS
notes: also called rituximab-MicAbody with ULBP2 variant R
binding result (Fc-NKG2D.Y152A [1]): no binding

B2: rituximab-MicAbody with ULBP2 variant C (bispecific antibody, human IgG1, kappa)
heavy: not shown
light: B1 light with L376I, G379Q, W380T
notes: also called ULBP2.C
EC50 (Fc-NKG2D.wt [2]): 130 nM

B3: rituximab-MicAbody with ULBP2 variant AA (bispecific antibody, human IgG1, kappa)
heavy: not shown
light: B1 light with L376M, L377F, G379S
notes: also called ULBP2.AA
EC50 (Fc-NKG2D.wt [3]): 655 nM

B4: rituximab-MicAbody with ULBP2 variant AB (bispecific antibody, human IgG1, kappa)
heavy: not shown
light: B1 light with L377M, G379Q
notes: also called ULBP2.AB
EC50 (Fc-NKG2D.wt [4]): 389 nM

B5: ULBP2.wt rituximab-MicAbody (bispecific antibody, human IgG1, kappa)
heavy: not shown
light: QIVLSQSPAILSASPGEKVTMTCRASSSVSYIHWFQQKPGSSPKPWIYATSNLASGVPVRFSGSGSGTSYSLTISRVEAEDAATYYCQQWTSNPPTFGGGTKLEIKRTVAAPSVFIFPPSDEQLKSGTASVVCLLNNFYPREAKVQWKVDNALQSGNSQESVTEQDSKDSTYSLSSTLTLSKADYEKHKVYACEVTHQGLSSPVTKSFNRGECAPTSSSGGGGSEPHSLSYDITVIPKFRPGPRWCAVQGQVDEKTFLHYDCGNKTVTPVSPLGKKLNVTTAWKAQNPVLREVVDILTEQLRDIQLENYTPKEPLTLQARMSCEQKAEGHSSGSWQFSFDGQIFLLFDSEKRMWTTVHPGARKMKEKWENDKVVAMSFHYFSMGDCIGWLEDFLMGMDSTLEPS
notes: also called ULBP2 MicAbody
EC50 (Fc-NKG2D.wt [5]): 1.4 nM | EC50 (Fc-eNKG2D4 (Y152V)): 35.8 nM | EC50 (Fc-eNKG2D3 (Y152T)): 31.1 nM | EC50 (Fc-eNKG2D14 (Y152L)): 87.6 nM | EC50 (Fc-eNKG2D2 (Y152S)): 34.8 nM | EC50 (Fc-NKG2D.wt [6]): 1.41 nM | binding result (Fc-eNKG2D9 (Y152V/Y199F)): no binding (tested: 300 nM) | binding result (Fc-eNKG2D7 (Y152S/Y199F)): no binding (tested: 300 nM) | binding result (Fc-eNKG2D5 (Y152A/Y199F) [7]): no binding (tested: 300 nM) | binding result (Fc-eNKG2D6 (Y152L/Y199F)): no binding (tested: 300 nM) | binding result (Fc-eNKG2D8 (Y152T/Y199F)): no binding (tested: 300 nM) | binding result [8]: no binding (tested: 300 nM) | binding result [9]: no binding (tested: 300 nM)

B6: rituximab-ULBP2.S3 MicAbody (bispecific antibody, human IgG1, kappa)
heavy: not shown
light: B5 light with R302W, M376T, S377K, F378L, H379Y, Y380L, F381W
notes: also called ULBP2.S3 as a MicAbody
binding result (Fc-NKG2D.Y152A [10]): binds | binding result (Fc-eNKG2D5 (Y152A/Y199F) [11]): no binding | binding result (Fc-NKG2D.wt [12]): no binding

B7: DSM25 α1-α2-α3-Fv fusion (SEQ ID NO 43) (ligand)
chain: EPHSLRYNLTVLSWDGSVQSGFLTEVHLDGQPFLRCDRQKCRAKPQGQWAEDVLGNKTWDRETRDLTGWGKDLRMTLAHIKDQKEGLHSLQEIRVCEIHEDNSTRSSQHFYYDGELFLSQNLETLEWTMPQSSRAQTLAMNVRNFLKEDAMETDTHYHAMRADCLSELRRYLKSGVVLRRTVPPMVQVTRSEASGGSGDRVTITCRASQDVSTAVAWYQQKPGKAPKLLIYSASFLYSGVPSRFSGSGSGTDFTLTISSLQPEDFATYYCQQSYTTPPTFGQGTKVEIKGGSSRSSSSGGGGSGGGGEVQLVESGGGLVQPGGSLRLSCAASGFTFTSTGISWVRQAPGKGLEWVGRIYPTNGSTNYADSVKGRFTISADTSKNTAYLQMNSLRAEDTAVYYCARTYGIYDLYVDYTEYVMDYWGQGTLVTVSSGGSSRSSSSGGGGSGGGGDIQMTQSPSSLSASGGSGQITVTCRASGFYPWNITLSWRQDGVSLSHDTQQWGDVLPDGQGTYQTWVATRISQGEEQRFTCYMEHSGQHSTHPVPSGKGSHHHHHH
binding result [13]: binds

B8: biotinylated human NKG2D (Example 1) (receptor, UniProt P26718 78-216, looked up)
chain: FLNSLFNQEVQIPLTESYCGPCPKNWICYKNNCYQFFDESKNWYESQASCMSQNASLLKVYSKEDQDLLKLVKSYHWMGLVHIPTNGSWQWEDGSILSPNLLTIIEMQKGDCALYASSFKGYIENCSTPNTYICMQRTV
notes: also called recombinant biotinylated NKG2D
koff [14]: 0.0018 s⁻¹ | kon [14]: 130000 M⁻¹ s⁻¹ | Kd [15]: 13.8 nM
